Assay results taken from patent US20240043552A1 (Eli Lilly, published 2024).

Experiments:
hLTβR-Fc-biotin = molecular target: T1, hLTβR-Fc-biotin (human, UniProt P36941 28-227, limits assumed, biotin-labelled with EZ-LINK Sulfo-NHS-LC-Biotin); assay: sandwich ELISA with mis-matched antigens
T1 construct: Bought (R&D systems); Detection antigen of the sandwich; also called LTPR (as printed once); not shown: Fc of the bought fusion protein
Experimental: (§1) The dual-binding activity of the same synthesized IgG BsAbs is assessed using a sandwich ELISA. […] Sandwich ELISAs are developed for detecting the four different BsAb test articles; one for detecting anti-HER-2/anti-EGFR BsAb activity, one for detecting anti-HER-2/anti-LTPR BsAb activity, one for detecting anti-cMET/anti-EGFR BsAb activity and one for detecting anti-cMET/anti-LTPR BsAb activity. For all ELISAs, clear 96-well round bottom high binding Immulon microtiter plates (Greiner bio-one, cat #650061) are coated overnight at 2-8° C. with 50 μL/well 1 μg/mL hHER-2-Fc or 1 μg/mL hHGFR(cMet)-Fc (both from R&D systems) in a 50 mM Na2CO3 pH 8.3 buffer. The plates are washed 4 times with PBST and blocked with 200 μL/well casein buffer (Pierce) for 1 hr at room temperature. The plates are then washed 4 times with PBST and the parental IgG controls or BsAb IgG test articles are added at 50 μL/well and […] and serially diluted 1:3 down the plate. The controls and test articles are incubated on the plate for 1 hr at room temperature. The plates are then washed 4 times with PBST and 50 μL/well 1 μg/mL hEGFR-Fc-biotin or hLTβR-Fc-biotin (both from R&D systems) is added for 1 hr at room temperature. The plates are then washed 4 times with PBST followed by the addition of a 50 μL/well streptavidin-AP (Jackson Immunoresearch Labs Cat. #016-050-084) diluted 1:1000 in casein buffer. The streptavidin-AP is incubated in each well for 1 hr at room temperature. The plates are then washed 4 times with PBST and 100 μL/well 1-step PNPP substrate is added (Thermo Scientific Cat. #37621). After approximately 5-15 minutes, plates are read for Absorbance (405 nm) using a SPECTRAMAX® UV plate reader (Molecular Devices). Biotin-labeling of the hEGFR-Fc and hLTβR-Fc proteins is performed using EZ-LINK™ Sulfo-NHS-LC-Biotin (Thermo Scientific Cat. #21327) according to the manufacturer's protocol.

hHGFR(cMet)-Fc = molecular target: T2, hHGFR(cMet)-Fc (human, UniProt P08581 25-932); assay: sandwich ELISA with mis-matched antigens
T2 construct: Bought (R&D systems); Coated on the plate; not shown: Fc of the bought fusion protein
Experimental: as §1

T2 sequence (P08581 25-932): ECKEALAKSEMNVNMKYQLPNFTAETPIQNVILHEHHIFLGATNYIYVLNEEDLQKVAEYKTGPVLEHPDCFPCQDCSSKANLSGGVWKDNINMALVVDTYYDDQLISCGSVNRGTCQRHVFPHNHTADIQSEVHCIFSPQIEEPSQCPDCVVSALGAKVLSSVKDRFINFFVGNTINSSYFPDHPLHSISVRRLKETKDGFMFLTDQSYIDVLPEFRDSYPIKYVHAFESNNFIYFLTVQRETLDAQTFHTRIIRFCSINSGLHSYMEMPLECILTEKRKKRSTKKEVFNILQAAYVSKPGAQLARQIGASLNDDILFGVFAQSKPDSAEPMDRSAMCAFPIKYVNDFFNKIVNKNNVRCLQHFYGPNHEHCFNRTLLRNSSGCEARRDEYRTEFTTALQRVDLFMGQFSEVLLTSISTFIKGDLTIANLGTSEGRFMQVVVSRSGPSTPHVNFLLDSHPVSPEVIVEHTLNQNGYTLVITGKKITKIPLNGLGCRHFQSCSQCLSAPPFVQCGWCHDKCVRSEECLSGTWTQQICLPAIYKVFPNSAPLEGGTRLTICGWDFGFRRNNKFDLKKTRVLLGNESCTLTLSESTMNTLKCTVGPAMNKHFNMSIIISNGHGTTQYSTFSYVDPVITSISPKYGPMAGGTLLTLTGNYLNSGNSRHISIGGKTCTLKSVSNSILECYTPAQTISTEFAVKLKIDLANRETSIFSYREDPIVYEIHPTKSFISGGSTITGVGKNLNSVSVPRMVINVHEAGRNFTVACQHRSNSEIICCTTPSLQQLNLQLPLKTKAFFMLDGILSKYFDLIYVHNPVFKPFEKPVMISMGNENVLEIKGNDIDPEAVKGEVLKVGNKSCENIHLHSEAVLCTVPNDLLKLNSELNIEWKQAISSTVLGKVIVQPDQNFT
T1 sequence (P36941 28-227 limits assumed): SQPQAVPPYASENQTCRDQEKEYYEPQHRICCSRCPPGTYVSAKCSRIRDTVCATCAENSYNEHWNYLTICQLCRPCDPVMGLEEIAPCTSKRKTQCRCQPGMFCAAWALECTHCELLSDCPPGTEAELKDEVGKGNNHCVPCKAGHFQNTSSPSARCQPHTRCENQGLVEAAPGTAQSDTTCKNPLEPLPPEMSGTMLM

B1: Pertuzumab × Matuzumab IgG BsAb, CH1/Cκ design 14.1.2 (bispecific antibody)
heavy 1: EVQLVESGGGLVQPGGSLRLSCAASGFTFTDYTMDWVRKAPGKGLEWVADVNPNSGGSIYNQEFKGRFTLSVDRSKNTLYLQMNSLRAEDTAVYYCARNLGPSFYFDYWGQGTLVTVSSASTKGPSVFPLAPSSKSTSGGTAALGCLVADYFPEPVTVSWNSGALTSGVHTFPAVLQSSGLYSLSSVVTVPSSSLGTQTYICNVNHKPSNTKVDEKVEPKSCDKTHTCPPCPAPELLGGPSVFLFPPKPKDTLMISRTPEVTCVVVDVSHEDPEVKFNWYVDGVEVHNAKTKPREEQYQSTYRVVSVLTVLHQDWLNGKEYKCKVSNKALPAPIEKTISKAKGQPREPQVYTLPPSREEMTDNQVSLTCLVKGFYPSDIAVEWESNGQPENNYKTTPPVLMSDGSFFLASKLTVDKSRWQQGNVFSCSVMHEALHNHYTQKSLSLSPG
light 1: RIQMTQSPSSLSASVGDRVTITCKASQDVSIGVAWYQDKPGKAPKLLIYSASYRYTGVPSRFSGSGSGTDFTLTISSLQPEDFATYYCQQYYIYPYTFGQGTKVEIKRTVAAPSVFIFPPSDKQLKSGTARVVCLLNNFYPREAKVQWKVDNALQSGNSQESVTEQDSKDSTYSLSSTLTLSKADYEKHKVYACEVTHQGLSSPVTKSFNRGEC
heavy 2: QVQLVQSGAEVKKPGASVKVSCKASGYTFTSHWMHWVRYAPGQGLEWIGEFNPSNGRTNYNEKFKSKATMTVDTSTNTAYMELSSLRSEDTAVYYCASRDYDYDGRYFDYWGRGTLVTVSSASTKGPSVFPLAPSSKSTSGGTAALGCLVKDYFPEPVTVSWNSGALTSGVHTFPAVLQSSGLYSLSSVVTVPSSSLGTQTYICNVNHKPSNTKVDKKVEPKSCDKTHTCPPCPAPELLGGPSVFLFPPKPKDTLMISRTPEVTCVVVDVSHEDPEVKFNWYVDGVEVHNAKTKPREEQYQSTYRVVSVLTVLHQDWLNGKEYKCKVSNKALPAPIEKTISKAKGQPRRPRVYTLPPSREEMTKNQVSLVCLVKGFYPSDIAVEWESNGQPENNYKTTPPVLDSDGSFFLYSVLTVDKSRWQQGNVFSCSVMHEALHNHYTQKSLSLSPG
light 2: DIQMTQSPSSLSASVGDRVTITCSASSSVTYMYWYQRKPGDAPKLLIYDTSNLASGVPSRFSGSGSGTDYTFTISSLQPEDIATYYCQQWSSHIFTFGQGTKVEIKRTVAAPSVFIFPPSDEQLKSGTASVVCLLNNFYPREAKVQWKVDNALQSGNSQESVTEQDSKDSTYSLSSTLTLSKADYEKHKVYACEVTHQGLSSPVTKSFNRGEC
notes: Human IgG1; also called Pertuzumab × Matuzumab 14.1.2
Question: Does B1 bind (hLTβR-Fc-biotin)?
Answer: Result: no binding

Question: Does B1 bind (hHGFR(cMet)-Fc)?
Answer: Result: no binding

B2: Pertuzumab × Matuzumab IgG BsAb, CH1/Cκ design 14.3.1.1 (bispecific antibody)
heavy 1: EVQLVESGGGLVQPGGSLRLSCAASGFTFTDYTMDWVRKAPGKGLEWVADVNPNSGGSIYNQEFKGRFTLSVDRSKNTLYLQMNSLRAEDTAVYYCARNLGPSFYFDYWGQGTLVTVSSASTKGPSVFPLAPSSKSTSGGTAALGCLVADYFPEPVTVSWNSGALTSGVHTFPAVLQSSGLYSLASVVTVPSSSLGTQTYICNVNHKPSNTKVDKKVEPKSCDKTHTCPPCPAPELLGGPSVFLFPPKPKDTLMISRTPEVTCVVVDVSHEDPEVKFNWYVDGVEVHNAKTKPREEQYQSTYRVVSVLTVLHQDWLNGKEYKCKVSNKALPAPIEKTISKAKGQPREPQVYTLPPSREEMTDNQVSLTCLVKGFYPSDIAVEWESNGQPENNYKTTPPVLMSDGSFFLASKLTVDKSRWQQGNVFSCSVMHEALHNHYTQKSLSLSPG
light 1: RIQMTQSPSSLSASVGDRVTITCKASQDVSIGVAWYQDKPGKAPKLLIYSASYRYTGVPSRFSGSGSGTDFTLTISSLQPEDFATYYCQQYYIYPYTFGQGTKVEIKRTVAAPSVFIFPPSDEQLKSGTARVVCLLNNFYPREAKVQWKVDNALQSGNSQESVTEQDSKDSTYSLISTLTLSKADYEKHKVYACEVTHQGLSSPVTKSFNRGEC
heavy 2: QVQLVQSGAEVKKPGASVKVSCKASGYTFTSHWMHWVRYAPGQGLEWIGEFNPSNGRTNYNEKFKSKATMTVDTSTNTAYMELSSLRSEDTAVYYCASRDYDYDGRYFDYWGRGTLVTVSSASTKGPSVFPLAPSSKSTSGGTAALGCLVKDYFPEPVTVSWNSGALTSGVHTFPAVLQSSGLYSLSSVVTVPSSSLGTQTYICNVNHKPSNTKVDEKVEPKSCDKTHTCPPCPAPELLGGPSVFLFPPKPKDTLMISRTPEVTCVVVDVSHEDPEVKFNWYVDGVEVHNAKTKPREEQYQSTYRVVSVLTVLHQDWLNGKEYKCKVSNKALPAPIEKTISKAKGQPRRPRVYTLPPSREEMTKNQVSLVCLVKGFYPSDIAVEWESNGQPENNYKTTPPVLDSDGSFFLYSVLTVDKSRWQQGNVFSCSVMHEALHNHYTQKSLSLSPG
light 2: DIQMTQSPSSLSASVGDRVTITCSASSSVTYMYWYQRKPGDAPKLLIYDTSNLASGVPSRFSGSGSGTDYTFTISSLQPEDIATYYCQQWSSHIFTFGQGTKVEIKRTVAAPSVFIFPPSDKQLKSGTASVVCLLNNFYPREAKVQWKVDNALQSGNSQESVTEQDSKDSTYSLSSTLTLSKADYEKHKVYACEVTHQGLSSPVTKSFNRGEC
notes: Human IgG1; also called Pertuzumab × Matuzumab 14.3.1.1
Question: Does B2 bind (hLTβR-Fc-biotin)?
Answer: Result: no binding

Question: Does B2 bind (hHGFR(cMet)-Fc)?
Answer: Result: no binding

B3: Pertuzumab × Matuzumab IgG BsAb, CH1/Cκ design 14.3.1.2 (bispecific antibody)
heavy 1: EVQLVESGGGLVQPGGSLRLSCAASGFTFTDYTMDWVRKAPGKGLEWVADVNPNSGGSIYNQEFKGRFTLSVDRSKNTLYLQMNSLRAEDTAVYYCARNLGPSFYFDYWGQGTLVTVSSASTKGPSVFPLAPSSKSTSGGTAALGCLVADYFPEPVTVSWNSGALTSGVHTFPAVLQSSGLYSLGSVVTVPSSSLGTQTYICNVNHKPSNTKVDKKVEPKSCDKTHTCPPCPAPELLGGPSVFLFPPKPKDTLMISRTPEVTCVVVDVSHEDPEVKFNWYVDGVEVHNAKTKPREEQYQSTYRVVSVLTVLHQDWLNGKEYKCKVSNKALPAPIEKTISKAKGQPREPQVYTLPPSREEMTDNQVSLTCLVKGFYPSDIAVEWESNGQPENNYKTTPPVLMSDGSFFLASKLTVDKSRWQQGNVFSCSVMHEALHNHYTQKSLSLSPG
light 1: RIQMTQSPSSLSASVGDRVTITCKASQDVSIGVAWYQDKPGKAPKLLIYSASYRYTGVPSRFSGSGSGTDFTLTISSLQPEDFATYYCQQYYIYPYTFGQGTKVEIKRTVAAPSVFIFPPSDEQLKSGTARVVCLLNNFYPREAKVQWKVDNALQSGNSQESVTEQDSKDSTYSLISTLTLSKADYEKHKVYACEVTHQGLSSPVTKSFNRGEC
heavy 2: QVQLVQSGAEVKKPGASVKVSCKASGYTFTSHWMHWVRYAPGQGLEWIGEFNPSNGRTNYNEKFKSKATMTVDTSTNTAYMELSSLRSEDTAVYYCASRDYDYDGRYFDYWGRGTLVTVSSASTKGPSVFPLAPSSKSTSGGTAALGCLVKDYFPEPVTVSWNSGALTSGVHTFPAVLQSSGLYSLSSVVTVPSSSLGTQTYICNVNHKPSNTKVDEKVEPKSCDKTHTCPPCPAPELLGGPSVFLFPPKPKDTLMISRTPEVTCVVVDVSHEDPEVKFNWYVDGVEVHNAKTKPREEQYQSTYRVVSVLTVLHQDWLNGKEYKCKVSNKALPAPIEKTISKAKGQPRRPRVYTLPPSREEMTKNQVSLVCLVKGFYPSDIAVEWESNGQPENNYKTTPPVLDSDGSFFLYSVLTVDKSRWQQGNVFSCSVMHEALHNHYTQKSLSLSPG
light 2: DIQMTQSPSSLSASVGDRVTITCSASSSVTYMYWYQRKPGDAPKLLIYDTSNLASGVPSRFSGSGSGTDYTFTISSLQPEDIATYYCQQWSSHIFTFGQGTKVEIKRTVAAPSVFIFPPSDKQLKSGTASVVCLLNNFYPREAKVQWKVDNALQSGNSQESVTEQDSKDSTYSLSSTLTLSKADYEKHKVYACEVTHQGLSSPVTKSFNRGEC
notes: Human IgG1; also called Pertuzumab × Matuzumab 14.3.1.2
Question: Which results are given for B3?
Answer: binding result (hLTβR-Fc-biotin): no binding; binding result (hHGFR(cMet)-Fc): no binding
